Article PMC10995120
pKd: −log10 of the molar value.

Biological target: GFP-CD16a (Homo sapiens) (UniProt P08637)
Experiment: SPR

Chain of UniProt P08637 (P08637 other isoform, or with tags, fused parts or gaps): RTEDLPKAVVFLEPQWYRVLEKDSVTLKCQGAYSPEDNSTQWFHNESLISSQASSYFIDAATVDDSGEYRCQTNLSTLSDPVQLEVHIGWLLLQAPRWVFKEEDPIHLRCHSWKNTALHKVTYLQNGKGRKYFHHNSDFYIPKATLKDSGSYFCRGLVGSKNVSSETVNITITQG

- pKd: 6.44
Substance: rituximab
